Measurements published in paper PMC8911475, “Insight into the Phylogeny and Binding Ability of WRKY Transcription Factors”.

T1: WRKY54 DBD (Arabidopsis thaliana, UniProt Q93WU8 133-224)
T1 sequence: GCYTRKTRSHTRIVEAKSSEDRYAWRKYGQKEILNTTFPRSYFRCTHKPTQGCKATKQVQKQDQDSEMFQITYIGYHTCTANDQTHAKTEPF

B1: T13 (dsDNA)
DNA 1: ATTTGTTGACTAG
DNA 2: CTAGTCAACAAAT
B2: W4 (dsDNA)
DNA 1: ATTTGTTGACTAGG
DNA 2: CCTAGTCAACAAAT
B3: T12 (dsDNA)
DNA 1: ATTTGTTGACTA
DNA 2: TAGTCAACAAAT
B4: T12a (dsDNA)
DNA 1: TTGTTGACTAGG
DNA 2: CCTAGTCAACAA
B5: W1 (dsDNA)
DNA 1: TGTCCTTGACTACA
DNA 2: TGTAGTCAAGGACA
B6: T6 (dsDNA)
DNA 1: TTGACT
DNA 2: AGTCAA
B7: W3 (dsDNA)
DNA 1: TTAACTTGACCCAA
DNA 2: TTGGGTCAAGTTAA
B8: T10 (dsDNA)
DNA 1: GTTGACTAGG
DNA 2: CCTAGTCAAC
B9: W2 (dsDNA)
DNA 1: GTTATTTGACCACC
DNA 2: GGTGGTCAAATAAC
B10: T8 (dsDNA)
DNA 1: GTTGACTA
DNA 2: TAGTCAAC

What was measured:
WRKY54 DBD [1] = biological target: T1, WRKY54 DBD; assay: QCM; text also gives 68 ± 11.73 pM for T13 (inconsistent); QCM: 30 mM HEPES pH 7.5, 0.5 M NaCl, 2 mM TCEP, 25 °C, biotin-dsDNA on avidin; fEMSA: 30 min incubation in the dark, native PAGE 4 °C 120 V 90 min, buffer not stated; details: protein: recombinant; tags: N-term MBP + thrombin site; C-term 12xHis; label: 5' fluorescein (fEMSA); 5' biotin (QCM)
WRKY54 DBD [2] = biological target: T1, WRKY54 DBD; assay: QCM; QCM: 30 mM HEPES pH 7.5, 0.5 M NaCl, 2 mM TCEP, 25 °C, biotin-dsDNA on avidin; fEMSA: 30 min incubation in the dark, native PAGE 4 °C 120 V 90 min, buffer not stated; details: protein: recombinant; tags: N-term MBP + thrombin site; C-term 12xHis; label: 5' fluorescein (fEMSA); 5' biotin (QCM)
WRKY54 DBD [3] = biological target: T1, WRKY54 DBD; assay: EMSA; QCM: 30 mM HEPES pH 7.5, 0.5 M NaCl, 2 mM TCEP, 25 °C, biotin-dsDNA on avidin; fEMSA: 30 min incubation in the dark, native PAGE 4 °C 120 V 90 min, buffer not stated; details: protein: recombinant, tags: N-term MBP + thrombin site, C-term 12xHis
[4] = label: 5' fluorescein (fEMSA), 5' biotin (QCM)

Row | Binder | Kd (WRKY54 DBD [2]) [nM] | binding result (WRKY54 DBD [3]; label: 5' fluorescein) | binding result (WRKY54 DBD [3]; [4]) | further results
1 | B1 |  |  |  | Kd (WRKY54 DBD [1]): 0.192 ± 0.0225 nM
2 | B2 | 0.163 ± 0.0101 |  |  | 
3 | B3 | 2.19 ± 0.442 |  |  | 
4 | B4 | 0.047 ± 0.0062 |  |  | 
5 | B5 |  | no binding |  | 
6 | B6 |  |  | no binding | 
7 | B7 |  | no binding |  | 
8 | B8 |  |  | no binding | 
9 | B9 |  | no binding |  | 
10 | B10 |  |  | no binding | 
